Experimental data as given in US20180284130A1.

How the values were obtained:
obinutuzumab (GAZYVA) [1] = experiment: ELISA; mAb at 1000 and 315 ng/ml captured, ratio of A450 obinutuzumab/rituximab (FIG. 8H)
obinutuzumab (GAZYVA) [2] = experiment: ELISA; mAb captured by F(ab')2 anti-human F(ab')2, biotinylated dimer, streptavidin-HRP (FIG. 8C)
[3] = biological target: recombinant human anti-TNP IgG2 (chimeric, TIB142 VH with human IgG2 constant region) (human) [IgG part: P01859]; experiment: ELISA; anti-TNP IgG on TNP-BSA, biotinylated dimer; EC50 as IgG concentration (FIG. 3 D, L)
rituximab [4] = experiment: flow cytometry; CD19 B cells in PBMC opsonised with 2.5 µg/ml rituximab, dimer 0.2 µg/ml (FIG. 14E)
rituximab [5] = experiment: flow cytometry; CD19 B cells in PBMC opsonised with 2.5 µg/ml rituximab, dimer 0.2 µg/ml (FIG. 14F)

**Q.** For Human rsFcγRIIIa F158 dimer (receptor), which binding preference over rituximab (obinutuzumab (GAZYVA) [1]) is on record?
**A.** 10 fold

**Q.** What about the binding preference over rituximab (obinutuzumab (GAZYVA) [2]) of the same substance?
**A.** 20 fold

**Q.** “Human rsFcγRIIa H131 dimer (from UniProt P12318 34-215) (receptor)” was tested. Which EC50 [3] did it give?
**A.** 0.3 µg/mL

**Q.** What about the median fluorescence intensity (MFI) (rituximab [4]) of the same substance?
**A.** 4000 MFI

**Q.** For Human rsFcγRIIIa V158 dimer (receptor), which median fluorescence intensity (MFI) (rituximab [5]) is on record?
**A.** 11000 MFI
